PMC3057456

System: LUX ARRHYTHMO (LUX/PCL1) (Arabidopsis)
Assay: protein binding microarray
Details: not stated in the material

In the case of PBM top-ranked 8-mer AGATACGC, the binding signal (PBM E-score (-0.5 to 0.5)) was 0.487.
